This note sets out measurements from the RNAGym collection of RNA variant scans (doi:10.1093/molbev/msab373).

To fix the notation:
B1: Azoarcus group I ribozyme (parent)
chain: GUGCCUUGCGCCGGGAAACCACGCAAGGGAUGGUGUCAAAUUCGGCGAAACCUAAGCGCCCGCCCGGGCGUAUGGCAACGCCGAGCCAAGCUUCGGCGCCUGCGCCGAUGAAGGUGUAGAGACUAGACGGCACCCACCUAAGGCAAACGCUAUGGUGAAGGCAUAGUCCAGGGAGUGGCGAAAGUCACACAAACCGG

In this series the parent is B1. Nature of the series: reverse-splicing fitness (ratio to wild type); higher = more active; in vitro selection; Mg2+ level not given. The method in brief: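 An in vitro group I ribozyme library with randomized positions was T7-transcribed and gel-purified. In triplicate, 10 pmol RNA in EPPS pH 7.5 was reacted with 50 pmoles of a 30-nt RNA substrate for 1 h at 37 °C across several added MgCl2 levels (1–48 mM), then stopped with EDTA. Products were reverse transcribed from a substrate-complementary primer, PCR-amplified and sequenced (HiSeq 4000). Fitness is a variant's read proportion after selection over that before, normalised to wild type.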
Consider A120G A145G C169G, for which the reverse-splicing fitness is 0.639. In the case of A120G A145G C169U, the reverse-splicing fitness worked out at 0.441. A120G C150U C169U U176G: the reverse-splicing fitness was 0.011.

As for A120G C150U C169U U176A, the reverse-splicing fitness worked out at 0.136. A120G C150U C169U U176C: the reverse-splicing fitness is 0.159. Turning to A120U A145C C169U U176C, the reverse-splicing fitness is 0.1. Consider A120U A145C C169U U176A, for which the reverse-splicing fitness is 0.0854. Take A120U A145C C169U U176G: the reverse-splicing fitness was determined as 0.0133.

For the variant A120U A145G C150G C169G U176A, the reverse-splicing fitness turned out to be 0.00914. The value for A120U A145G C150G C169G U176G was 0.00354; that for A120U A145G C150G C169G U176C was 0.00575; that for A120G A145U C150A C169G U176C was 0.061.

In the case of A120G A145U C150A C169G U176G, the reverse-splicing fitness worked out at 0.00649. A120G A145U C150A C169G U176A: the reverse-splicing fitness amounted to 0.0455. In the case of A120G A145U C150U C169G U176A, the reverse-splicing fitness came out at 0.157. The same measure for A120G A145U C150U C169G U176G: 0.00892; for A120G A145U C150U C169G U176C: 0.207; for A120G C150A C169A U176G: 0.00569. Take A120G C150A C169A U176C: the reverse-splicing fitness turned out to be 0.0393. For the variant A120G C150A C169A U176A, the reverse-splicing fitness was determined as 0.0363. The same measure for A120U A145C C150G C169A: 0.00349; for A120U A145C C150G C169G: 0.0341. On to A120U A145C C150G C169U, for which the reverse-splicing fitness came out at 0.0478.

As to A120U A145C C150U C169A, the reverse-splicing fitness was 0.00515. As to A120U A145C C150U C169G, the reverse-splicing fitness was determined as 0.0691. In the case of A120U A145C C150U C169U, the reverse-splicing fitness was 0.0928. For the variant A120G A145G C150U C169G U176C, the reverse-splicing fitness is 0.216. In the case of A120G A145G C150U C169G U176A, the reverse-splicing fitness is 0.149.

On to A120G A145G C150U C169G U176G, for which the reverse-splicing fitness turned out to be 0.00838.

Turning to A120G A145G C150G C169A U176G, the reverse-splicing fitness is 0.00777. Take A120G A145G C150G C169A U176C: the reverse-splicing fitness is 0.0319. The value for A120G A145G C150G C169A U176A was 0.0181; that for A120U A145C C150U C169U U176A was 0.0309.

As to A120U A145C C150U C169U U176G, the reverse-splicing fitness turned out to be 0.00705. As for A120U A145C C150U C169U U176C, the reverse-splicing fitness amounted to 0.0258. The value for A120G A145G C169A U176G was 0.00693.

For the variant A120G A145G C169A U176C, the reverse-splicing fitness worked out at 0.185. For the variant A120G A145G C169A U176A, the reverse-splicing fitness worked out at 0.114. On to A120G C150A C169U U176A, for which the reverse-splicing fitness was found to be 0.0635. A120G C150A C169U U176C: the reverse-splicing fitness was 0.0621. Regarding A120G C150A C169U U176G, the reverse-splicing fitness turned out to be 0.00851.

On to A120G A145U C169G, for which the reverse-splicing fitness amounted to 0.618. As for A120G A145U C169A, the reverse-splicing fitness was found to be 0.447. In the case of A120G A145U C169U, the reverse-splicing fitness amounted to 0.446. As to A120G A145G C150A C169G U176A, the reverse-splicing fitness worked out at 0.0656. For the variant A120G A145G C150A C169G U176C, the reverse-splicing fitness was determined as 0.0972. Take A120G A145G C150A C169G U176G: the reverse-splicing fitness is 0.00637. A120G A145G C150U C169U U176C: the reverse-splicing fitness amounted to 0.175. On to A120G A145G C150U C169U U176A, for which the reverse-splicing fitness stood at 0.145. As for A120G A145G C150U C169U U176G, the reverse-splicing fitness amounted to 0.0096.

As to A120G A145C C150A U176G, the reverse-splicing fitness came to 0.00611. Regarding A120U A145G C150A C169A U176C, the reverse-splicing fitness was 0.00372. A120U A145G C150A C169A U176A: the reverse-splicing fitness came out at 0.00533.

Consider A120U A145G C150A C169A U176G, for which the reverse-splicing fitness came to 0.00241.

Consider A120G C150G C169A U176G, for which the reverse-splicing fitness turned out to be 0.0055. Turning to A120G C150G C169A U176A, the reverse-splicing fitness is 0.0128. In the case of A120G C150G C169A U176C, the reverse-splicing fitness turned out to be 0.0257.

For A120U A145G C150G C169U U176G, the reverse-splicing fitness worked out at 0.0045. Regarding A120U A145G C150G C169U U176A, the reverse-splicing fitness was found to be 0.00909. The same measure for A120U A145G C150G C169U U176C: 0.0205.

Regarding A120G A145C C150U C169A U176A, the reverse-splicing fitness turned out to be 0.0422. In the case of A120G A145C C150U C169A U176C, the reverse-splicing fitness was 0.0659.

With A120G A145C C150U C169A U176G, the reverse-splicing fitness was 0.00586. With A120G A145C C169U U176C, the reverse-splicing fitness is 0.19. As to A120G A145C C169U U176A, the reverse-splicing fitness is 0.181. A120G A145C C169U U176G: the reverse-splicing fitness came to 0.0181.

As to A120G A145C C150G C169A U176A, the reverse-splicing fitness stood at 0.016. Regarding A120G A145C C150G C169A U176G, the reverse-splicing fitness was 0.00448. The value for A120G A145C C150G C169A U176C was 0.031; that for A120U A145G C150G C169U was 0.0537; that for A120U A145G C150G C169A was 0.00998. For the variant A120U A145G C150G C169G, the reverse-splicing fitness came to 0.0353. The value for A120G A145C C150G C169A was 0.0659; that for A120G A145C C150G C169G was 0.114. Take A120G A145C C150G C169U: the reverse-splicing fitness came out at 0.0909. A120G A145G C150U U176A: the reverse-splicing fitness turned out to be 0.151.

For A120G A145G C150U U176G, the reverse-splicing fitness came to 0.0181. A120G A145G C150U U176C: the reverse-splicing fitness turned out to be 0.212. Turning to A120G A145U C150U C169A U176A, the reverse-splicing fitness was 0.08. For A120G A145U C150U C169A U176C, the reverse-splicing fitness is 0.14. On to A120G A145U C150U C169A U176G, for which the reverse-splicing fitness worked out at 0.00609. As to A120G A145C C150U C169G U176C, the reverse-splicing fitness turned out to be 0.107. Turning to A120G A145C C150U C169G U176A, the reverse-splicing fitness was determined as 0.102.

For the variant A120G A145C C150U C169G U176G, the reverse-splicing fitness worked out at 0.00726.
